According to patent publication US7294753:

Experiments:
[1] = biological target: human macrophage migration inhibitory factor (MIF) (human) (UniProt P14174); test: cell-based or functional assay
CD80 = CD80 (UniProt P33681); test: comparator antibody, sub-head 'Kd'; method and antigen not stated
CD23 = CD23 (UniProt P06734); test: as above
CD23, sequence (P06734 48-321 limits assumed): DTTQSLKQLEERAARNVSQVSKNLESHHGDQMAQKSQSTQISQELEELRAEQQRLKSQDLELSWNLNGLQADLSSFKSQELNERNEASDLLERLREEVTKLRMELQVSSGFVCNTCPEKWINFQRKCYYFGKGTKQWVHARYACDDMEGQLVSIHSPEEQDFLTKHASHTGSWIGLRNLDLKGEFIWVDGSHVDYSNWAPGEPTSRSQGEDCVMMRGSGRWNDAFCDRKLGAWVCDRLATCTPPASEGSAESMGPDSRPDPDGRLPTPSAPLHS

human macrophage migration inhibitory factor (MIF) (human), sequence (P14174 2-115 limits assumed): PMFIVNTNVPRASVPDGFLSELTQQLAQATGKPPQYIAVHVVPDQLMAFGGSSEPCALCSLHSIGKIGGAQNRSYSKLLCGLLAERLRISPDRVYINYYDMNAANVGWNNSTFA
CD80, sequence (P33681 35-242 limits assumed): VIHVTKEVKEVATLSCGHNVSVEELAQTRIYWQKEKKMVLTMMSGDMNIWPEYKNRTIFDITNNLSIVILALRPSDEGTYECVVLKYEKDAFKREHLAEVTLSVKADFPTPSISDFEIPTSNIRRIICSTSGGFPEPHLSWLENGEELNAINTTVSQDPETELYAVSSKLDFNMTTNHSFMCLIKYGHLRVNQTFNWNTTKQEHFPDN

## 2B8 (murine anti-CD20 Mab) (antibody)
[1]
  % MIF PPT Activity: 105%

## IDEC-114 (anti-CD80 mab) (antibody)
CD80
  Kd: 2.2 nM

## IDEC-152 (anti-CD23 mab) (antibody)
CD23
  Kd: 1.2 nM
